Data as given in patent US20230048553A1 (AbbVie / Abbott, published 2023).
Changes are numbered by the printed parent chain.

T1: mouse CCR8 (mouse, UniProt P56484 1-353, limits assumed)
T1 sequence (looked up): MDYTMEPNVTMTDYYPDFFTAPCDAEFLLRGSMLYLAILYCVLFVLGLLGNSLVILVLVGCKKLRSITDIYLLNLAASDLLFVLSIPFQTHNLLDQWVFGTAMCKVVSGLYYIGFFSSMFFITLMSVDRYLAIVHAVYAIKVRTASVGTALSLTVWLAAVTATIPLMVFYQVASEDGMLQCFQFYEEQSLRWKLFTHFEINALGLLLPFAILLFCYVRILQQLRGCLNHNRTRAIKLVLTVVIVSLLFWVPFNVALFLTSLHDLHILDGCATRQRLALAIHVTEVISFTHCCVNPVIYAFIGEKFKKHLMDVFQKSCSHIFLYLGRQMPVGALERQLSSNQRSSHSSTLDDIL

T2: rabbit CCR8 (rabbit, UniProt G1T2B2 1-355)
T2 sequence: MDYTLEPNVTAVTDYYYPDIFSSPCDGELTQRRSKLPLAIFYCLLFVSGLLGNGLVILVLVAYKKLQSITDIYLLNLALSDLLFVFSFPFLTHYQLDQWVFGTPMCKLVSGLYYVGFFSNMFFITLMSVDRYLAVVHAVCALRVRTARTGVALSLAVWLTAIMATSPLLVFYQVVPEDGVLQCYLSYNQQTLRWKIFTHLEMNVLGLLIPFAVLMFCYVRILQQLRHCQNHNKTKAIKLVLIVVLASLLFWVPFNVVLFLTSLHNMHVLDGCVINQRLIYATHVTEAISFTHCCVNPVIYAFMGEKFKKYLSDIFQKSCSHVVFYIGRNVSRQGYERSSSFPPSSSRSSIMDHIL

T3: rat CCR8 (rat, UniProt D4ADE0 1-353)
T3 sequence: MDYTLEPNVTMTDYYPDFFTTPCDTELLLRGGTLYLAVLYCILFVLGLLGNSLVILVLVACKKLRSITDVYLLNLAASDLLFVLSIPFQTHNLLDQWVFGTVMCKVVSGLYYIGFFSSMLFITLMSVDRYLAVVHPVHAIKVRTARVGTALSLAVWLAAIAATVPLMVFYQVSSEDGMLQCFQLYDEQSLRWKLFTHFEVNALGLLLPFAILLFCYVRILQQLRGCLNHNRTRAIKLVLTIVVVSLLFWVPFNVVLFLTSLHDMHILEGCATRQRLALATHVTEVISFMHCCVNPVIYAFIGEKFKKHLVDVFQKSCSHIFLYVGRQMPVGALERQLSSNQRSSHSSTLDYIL

B1: AC-264700 (antibody, V domains shown)
VH: EVQLVESGGGLVQPGGSLKLSCAASGFIFSNAVMYWVRQASGKGLEWVARIKTKFNNYATYYADSVKGRFTISRDDSKNMVYLQMNSLKTEDTAVYYCTAGDRNKPFAYWGQGTLVTVSS
VL: ETVVTQSPATLSLSPGERATLSCRASDSVITLLHWFQQKPGQAPRLLIHGASNLESRVPARFSGSGSGTDFTLTISSLEPEDFATYFCQQSWNDPYTFGQGTKLEIKR
B2: AC-277357 (fucosylated) (antibody, human IgG1, kappa, V domains shown)
VH: B1 VH with S65A
VL: B1 VL with D27T
notes: AC-264700 with LCDR1 D27→T. Human IgG1 kappa
B3: AC-277371 (antibody, V domains shown)
VH: B1 VH with S65A
VL: B1 VL with D27G
B4: ABBV-514 (antibody, human IgG1, kappa, V domains shown)
VH: B1 VH with S65A
VL: B1 VL with D27T
modifications: afucosylated N-glycan at ASN-300 (EU: ASN-297)
notes: Afucosylated humanized IgG1 kappa made in cells expressing Pseudomonas RMD
B5: AC-277483 (antibody, V domains shown)
VH: B1 VH with S65A
VL: B1 VL with S28A

Experiments:
[1] = target: T4, cynomolgus CCR8 (cynomolgus monkey, UniProt G7NYJ2 1-355); assay: flow cytometry on cyCCR8 Jurkat cells
T4 construct: whole, on cells; also called cyCCR8; cynoCCR8
Procedure: (§1) The candidate molecules were assessed for binding capacity using flow cytometry through known methods against overexpressed huCCR8 or cyCCR8 on the surface of Jurkat cells. The exemplary antibodies were tested for their ability to self-interact, bind to huCCR8 and cyCCR8, capacity for ADCC using the reporter bioassay, and non-specific binding to HEK293 cells. […] The AC-SINS self-interaction scores for each candidate was <1. At 100 μg/mL, non-specific binding maximums ranged from 97 to 144 GMFI. At 10 μg/mL, non-specific binding maximums ranged from 94-111 GFMI. At 1 μg/mL, non-specific binding maximums ranged from 87-102 GMFI.

[2] = target: T4, cynomolgus CCR8; assay: cell-based or functional assay
[3] = target: T5, human CCR8 (chemokine receptor 8) (human, UniProt P51685 1-355); assay: cell-based or functional assay
[4] = target: T5, human CCR8 (chemokine receptor 8); assay: flow cytometry on huCCR8 Jurkat cells
Procedure: as §1

[5] = target: T5, human CCR8 (chemokine receptor 8); assay: cell-based or functional assay; remark: listed apart in the source
[6] = target: T1, mouse CCR8; assay: not told
[7] = target: T2, rabbit CCR8; assay: not told
[8] = target: T3, rat CCR8; assay: not told

T4 sequence (G7NYJ2 entry or part of it): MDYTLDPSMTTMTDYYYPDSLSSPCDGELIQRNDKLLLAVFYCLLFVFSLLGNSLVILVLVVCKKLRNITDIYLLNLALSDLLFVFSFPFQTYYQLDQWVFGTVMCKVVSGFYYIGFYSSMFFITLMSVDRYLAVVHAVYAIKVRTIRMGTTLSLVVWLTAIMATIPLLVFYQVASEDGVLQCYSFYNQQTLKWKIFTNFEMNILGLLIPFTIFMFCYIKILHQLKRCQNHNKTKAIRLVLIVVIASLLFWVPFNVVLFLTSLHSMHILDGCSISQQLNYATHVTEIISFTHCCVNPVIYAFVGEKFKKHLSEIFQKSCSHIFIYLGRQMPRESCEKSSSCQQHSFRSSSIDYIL
T5 sequence (P51685 whole entry): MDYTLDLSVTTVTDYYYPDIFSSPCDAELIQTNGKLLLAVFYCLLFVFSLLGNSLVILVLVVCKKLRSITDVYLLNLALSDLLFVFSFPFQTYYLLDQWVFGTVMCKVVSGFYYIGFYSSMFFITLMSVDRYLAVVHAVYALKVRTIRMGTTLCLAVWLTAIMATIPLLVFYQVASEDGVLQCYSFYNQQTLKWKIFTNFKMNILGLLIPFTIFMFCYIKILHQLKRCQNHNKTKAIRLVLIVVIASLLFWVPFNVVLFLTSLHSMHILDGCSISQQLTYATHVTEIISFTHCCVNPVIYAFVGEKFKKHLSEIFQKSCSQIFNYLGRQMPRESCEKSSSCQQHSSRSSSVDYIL

Row | Binder | EC50 [1] | ADCC reporter cyCCR8 EC50 [2] | ADCC reporter cyCCR8 Max Fold Induction [2] | ADCC reporter huCCR8 EC50 [3] | ADCC reporter huCCR8 Max Fold Induction [3] | EC50 [4] | EC50 of CCL1 blockade (CCR8 beta-arrestin reporter assay) [5] | binding result [6] | binding result [7] | binding result [8]
1 | B1 | 5.27 nM | 0.79 nM | 12 fold | 0.12 nM | 12.8 fold | 2.33 nM |  |  |  | 
2 | B2 | 2.37 nM | 0.75 nM | 12.3 fold | 0.1 nM | 15.7 fold | 1.51 nM |  |  |  | 
3 | B3 | 4.83 nM | 0.57 nM | 11.7 fold | 0.05 nM | 12.7 fold | 1.87 nM |  |  |  | 
4 | B4 |  |  |  |  |  |  | 23.1 µg/mL | no binding | no binding | no binding
5 | B5 | 5.93 nM | 1.19 nM | 10 fold | 0.07 nM | 13.6 fold | 2.9 nM |  |  |  | 
